Data on one protein can be found in patent US20230287489.

The target in this data set is T1, human placental RNase inhibitor (NEB, Cat #M0307S), P13489.
T1 chain: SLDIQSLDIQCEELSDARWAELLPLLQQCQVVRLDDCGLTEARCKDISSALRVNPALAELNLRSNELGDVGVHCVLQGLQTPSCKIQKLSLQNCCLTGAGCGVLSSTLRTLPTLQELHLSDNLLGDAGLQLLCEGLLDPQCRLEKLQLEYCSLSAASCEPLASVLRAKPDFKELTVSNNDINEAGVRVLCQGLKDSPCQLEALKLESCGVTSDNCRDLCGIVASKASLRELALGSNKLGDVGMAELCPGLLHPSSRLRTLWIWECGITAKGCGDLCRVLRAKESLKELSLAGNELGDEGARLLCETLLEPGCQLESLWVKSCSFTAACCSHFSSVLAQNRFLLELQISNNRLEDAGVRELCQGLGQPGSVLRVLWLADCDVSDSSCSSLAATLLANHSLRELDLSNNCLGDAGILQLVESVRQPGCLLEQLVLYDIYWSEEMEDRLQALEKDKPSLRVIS

B1: recombinant wild-type human RNase4 (hRNase 4), periplasmically expressed as an MBP fusion protein (protein)
chain: QDGMYQRFLRQHVHPEETGGSDRYCNLMMQRRKMTLYHCKRFNTFIHEDIWNIRSICSTTNIQCKNGKMNCHEGVVKVTDCRDTGSSRAPNCRYRAIASTRRVVIACEGNPQVPVHFDG
Turning to B1, the “cleavage of a target RNA oligonucleotide (SEQ ID NO: 23) by hRNase 4, LC-MS/MS” value was “cleavage of the target oligonucleotide was inhibited following preincubation of hRNase 4 with human placental RNase inhibitor”.
